In patent US20120077957A1 (PALATIN TECHNOLOGIES, published 2012):
Where two headings read alike, the source gives them in different places. Numbered stars: 1 amine (or outer) side, 2 acyl side, 3 side chain; on linkers, the order of the positions; unused ones are H or OH. Bridge positions count the residues as written; N and C are the ends. Square brackets hold non-standard residues; d marks the D form. * marks the point of attachment. Ser(Bzl) = O-benzyl-serine, O=C([C@H](COCc1ccccc1)N[*:1])[*:2]; Nle = CCCC[C@H](N)C(=O)O; Orn = NCCC[C@H](N)C(=O)O; Dab = NCC[C@H](N)C(=O)O; Bn = c1ccc(C*)cc1

Key:
[1] = target: T1, human melanocortin-4 receptor (recombinant hMC4-R) (human, UniProt P32245 1-332); assay: cell-based or functional assay
T1 sequence (P32245 whole entry): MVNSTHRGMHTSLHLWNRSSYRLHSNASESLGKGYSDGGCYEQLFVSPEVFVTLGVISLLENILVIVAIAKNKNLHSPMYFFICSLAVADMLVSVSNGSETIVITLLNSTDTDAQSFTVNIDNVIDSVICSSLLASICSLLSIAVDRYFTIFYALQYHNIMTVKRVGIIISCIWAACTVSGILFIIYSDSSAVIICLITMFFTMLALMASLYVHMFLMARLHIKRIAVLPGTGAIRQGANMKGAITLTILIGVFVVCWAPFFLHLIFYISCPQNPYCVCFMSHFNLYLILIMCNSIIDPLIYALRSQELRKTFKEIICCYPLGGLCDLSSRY

[2] = target: T1, human melanocortin-4 receptor …; assay: competition with labelled NDP-α-MSH ([I125] or Eu), hMC4-R HEK-293 membranes
Experimental: (§1) After incubation for 60 minutes at 37° C., the assay mixture was filtered and the membranes washed three times with ice-cold buffer. Filters were dried and counted in a gamma counter for bound radioactivity. […] Maximal specific binding (100%) was defined as the difference in radioactivity (cpm) bound to cell membranes in the absence and presence of 1 μM NDP-α-MSH. […] Ki values for test peptides of the present invention were determined using Graph-Pad Prism® curve-fitting software.
(§2) After incubation for 90 minutes at 37° C., the reaction was stopped by filtration over AcroWell 96-well filter plates (Pall Life Sciences). The filter plates were washed 4 times with 200 μL of ice-cold phosphate-buffered saline. DELFIA Enhancement solution (PerkinElmer Life Sciences) was added to each well. The plates were incubated on a shaker for 15 minutes and read at 340 nm excitation and 615 nm emission wavelengths. Each assay was conducted in duplicate and mean values were utilized. Ki values were determined by curve-fitting with Graph-Pad Prism® software using a one-site fixed-slope competition binding model.

[3] = target: T1, human melanocortin-4 receptor …; assay: as above; remark: listed apart in the source
Experimental: as §1, §2

[4] = target: T1, human melanocortin-4 receptor …; assay: cell-based or functional assay; remark: listed apart in the source

Binder	Ec50 (nM), cAMP [1] [nM]	Emax (%), cAMP [1] [%]	Ki [2] [nM]	Ki [3] [nM]	Ec50 (nM), cAMP [4] [nM]	Emax (%), cAMP [4] [%]
Ac-[Nle][Orn]H[dF]RWE-NH2 (lactam 2-7) [Peptide No. 36: Ac-Nle-cyclo(Orn-His-D-Phe-Arg-Trp-Glu)-NH2]	0.2	85	0.2	–	–	–
Ac-[Nle][Orn]H[dF]RWE-OH (lactam 2-7) [Peptide No. 35: Ac-Nle-cyclo(Orn-His-D-Phe-Arg-Trp-Glu)-OH]	–	97	1	–	–	–
Ac-R[Orn]H[dF]RWE-NH2 (lactam 2-7) [Peptide No. 38: Ac-Arg-cyclo(Orn-His-D-Phe-Arg-Trp-Glu)-NH2]	1	84	1	–	–	–
Ac-RE[Orn](Ac)[dF]RW[Orn]-NH2 (lactam 2-7) [Peptide No. 33: Ac-Arg-cyclo(Glu-Orn(Acetyl)-D-Phe-Arg-Trp-Orn)-NH2]	–	–	–	7	3	90
Ac-R[Orn]H[dF]RWE-OH (lactam 2-7) [Peptide No. 37: Ac-Arg-cyclo(Orn-His-D-Phe-Arg-Trp-Glu)-OH]	0.6	88	12	–	–	–
Ac-R[Orn]S(Bn)[dF]RWE-OH (lactam 2-7) [Peptide No. 48: Ac-Arg-cyclo(Orn-Ser(Bzl)-D-Phe-Arg-Trp-Glu)-OH]	3	50	5	–	–	–
Ac-RDA[dF]RWK-NH2 (lactam 2-7, also called Peptide Structure (Asp...Lys) in the row of No. 41) [Asp...Lys analog of peptide No. 41: Ac-Arg-cyclo(Asp-Ala-D-Phe-Arg-Trp-Lys)-NH2]	37	74	19	–	–	–
Ac-[dR]DQ[dF]RWK-NH2 (lactam 2-7, also called Peptide Structure (Asp...Lys) in the row of No. 45) [Asp...Lys analog of peptide No. 45: Ac-D-Arg-cyclo(Asp-Gln-D-Phe-Arg-Trp-Lys)-NH2]	–	89	45	–	–	–
Ac-RDN[dF]RWK-NH2 (lactam 2-7; SMILES CC(=O)N[C@@H](CCCNC(=N)N)C(=O)N[C@H]1CC(=O)NCCCC[C@@H](C(N)=O)NC(=O)[C@H](Cc2c[nH]c3ccccc23)NC(=O)[C@H](CCCNC(=N)N)NC(=O)[C@@H](Cc2ccccc2)NC(=O)[C@H](CC(N)=O)NC1=O, also called Peptide Structure (Asp...Lys) in the rows of No. 34 and No. 46) [Asp...Lys analog of peptides No. 34 and No. 46: Ac-Arg-cyclo(Asp-Asn-D-Phe-Arg-Trp-Lys)-NH2]	42	91	32	32	42	91
Ac-EQ[dF]RW[Orn]-NH2 (lactam 1-6; SMILES CC(=O)N[C@H]1CCC(=O)NCCC[C@@H](C(N)=O)NC(=O)[C@H](Cc2c[nH]c3ccccc23)NC(=O)[C@H](CCCNC(=N)N)NC(=O)[C@@H](Cc2ccccc2)NC(=O)[C@H](CCC(N)=O)NC1=O) [Peptide No. 21: Ac-cyclo(Glu-Gln-D-Phe-Arg-Trp-Orn)-NH2]	–	–	–	74	26	49

The remaining binders from weak to strong by Ki [2], led by results:

Ec50 (nM), cAMP [1] [nM]	Emax (%), cAMP [1] [%]	Ki [2] [nM]	Ki [3] [nM]	Ec50 (nM), cAMP [4] [nM]	Emax (%), cAMP [4] [%]	Binder
7	52	19	–	–	–	Ac-R[Orn]A[dF]RWE-NH2 (lactam 2-7; SMILES CC(=O)N[C@@H](CCCNC(=N)N)C(=O)N[C@H]1CCCNC(=O)CC[C@@H](C(N)=O)NC(=O)[C@H](Cc2c[nH]c3ccccc23)NC(=O)[C@H](CCCNC(=N)N)NC(=O)[C@@H](Cc2ccccc2)NC(=O)[C@H](C)NC1=O) [Peptide No. 41: Ac-Arg-cyclo(Orn-Ala-D-Phe-Arg-Trp-Glu)-NH2]
9	43	17	–	–	–	Ac-RDP[dF]RWK-NH2 (lactam 2-7, also called Peptide Structure (Asp...Lys) in the row of No. 47) [Asp...Lys analog of peptide No. 47: Ac-Arg-cyclo(Asp-Pro-D-Phe-Arg-Trp-Lys)-NH2]
5	85	9	–	–	–	Ac-KDH[dF]RWK-NH2 (lactam 2-7; SMILES CC(=O)N[C@@H](CCCCN)C(=O)N[C@H]1CC(=O)NCCCC[C@@H](C(N)=O)NC(=O)[C@H](Cc2c[nH]c3ccccc23)NC(=O)[C@H](CCCNC(=N)N)NC(=O)[C@@H](Cc2ccccc2)NC(=O)[C@H](Cc2c[nH]cn2)NC1=O, also called Peptide Structure (Asp...Lys) in the row of No. 40) [Asp...Lys analog of peptide No. 40: Ac-Lys-cyclo(Asp-His-D-Phe-Arg-Trp-Lys)-NH2]
5	38	9	9	5	38	Ac-RD[Ser(Bzl)][dF]RWK-OH (lactam 2-7, also called Peptide Structure (Asp...Lys) in the rows of No. 17 and No. 48) [Asp...Lys analog of peptides No. 17 and No. 48: Ac-Arg-cyclo(Asp-Ser(Bzl)-D-Phe-Arg-Trp-Lys)-OH]
6	54	5	–	–	–	Ac-R[Orn]P[dF]RWE-NH2 (lactam 2-7) [Peptide No. 47: Ac-Arg-cyclo(Orn-Pro-D-Phe-Arg-Trp-Glu)-NH2]
0.2	103	4	–	–	–	Ac-[dR][Orn]H[dF]RWE-NH2 (lactam 2-7) [Peptide No. 39: Ac-D-Arg-cyclo(Orn-His-D-Phe-Arg-Trp-Glu)-NH2]
0.1	103	3	–	–	–	Ac-R[Orn][Dab][dF]RWE-NH2 (lactam 2-7) [Peptide No. 43: Ac-Arg-cyclo(Orn-Dab-D-Phe-Arg-Trp-Glu)-NH2]
0.2	114	3	–	–	–	Ac-K[Orn]H[dF]RWE-NH2 (lactam 2-7) [Peptide No. 40: Ac-Lys-cyclo(Orn-His-D-Phe-Arg-Trp-Glu)-NH2]
